From patent publication US20220177580A1
pKd: −log10 of the molar value.

Target: huFcγRIIa-131H (His-tagged, soluble, captured for SPR) (human) (UniProt P12318)
Assay: SPR, His-tagged FcγR captured by anti-His antibody, antibody injected

Sequence of huFcγRIIa-131H (His-tagged, soluble, captured for SPR) (human) (P12318 34-217 limits assumed): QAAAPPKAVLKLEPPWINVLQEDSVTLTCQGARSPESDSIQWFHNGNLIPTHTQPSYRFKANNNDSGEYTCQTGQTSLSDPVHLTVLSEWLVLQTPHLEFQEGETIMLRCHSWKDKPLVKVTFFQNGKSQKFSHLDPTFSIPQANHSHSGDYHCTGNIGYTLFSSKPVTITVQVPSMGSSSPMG

huIgG2 control (antibody) gave a pKd of 4.60.
